Laboratory results published in patent publication US5187153A, “Methods of treatment using Alzheimer's amyloid polypeptide derivatives” (Scios Nova Inc., priority 1990, dated 1993).
pKi: −log10 of the molar value.

Legend:
[1] = biological target: T1, Elastase (Sus scrofa, UniProt P00772); assay: Protease inhibition, fluorogenic MCA substrate: elastase; format: biochemical, porcine; settings: Elastase; substrate Suc-Ala-Pro-Ala-MCA; pH 7.0; 25° C.
T1 construct: elastase (33 U/mg from porcine pancreas); from tissue; host or cells: porcine pancreas
Description: (§1) The effects of A4 inhibitor on serine- and thiol- proteases were examined as follows: trypsin (17,000 units/mg from porcine pancreas), factor Xa and β-thrombin (gifts from Dr. Iwanagu, Kyushu University, Fukuoka, Japan), tryptase and chymase (both from rat peritoneal mast cells purified as described in Kido et al., Arch Biochem Biophys 239:436-443 (1985)), α-chymotrypsin (0.75 U/mg from bovine pancreas), elastase (33 U/mg from porcine pancreas), papain, cathepsin B (from rat liver purified as described in Towatari et al., Eur J Biochem 102:279-289 (1979)), plasmin (0.16 U/mg from human plasma), urokinase (0.75 U/mg from human kidney cells, Sigma Chemical Co.), tissue kallikrein (50 U/mg from porcine pancreas) or plasma kallikrein (9.4 U/mg from human plasma) was preincubated with various concentrations of the inhibitor in a total volume of 1.5 ml of buffer containing bovine serum albumin (0.1 mg/ml). […] The amount of 7-amino-4-methylcoumarin liberated from the substrates was determined fluorometrically with excitation and emission wavelengths of 380 nm and 460 nm, respectively, in a Hitachi fluorescence spectrophotometer, 650-10MS model, as reported in Kido et al. (1988), supra. Protein concentration was determined with bicinchoninic acid protein assay reagent as described by Smith et al., Anal. Biochem. 150:76-85 (1985). […]

[2] = biological target: T2, Plasmin (Homo sapiens, UniProt P00747); assay: Protease inhibition, fluorogenic MCA substrate: plasmin; format: biochemical
T2 construct: plasmin (0.16 U/mg from human plasma); from tissue; host or cells: human plasma
Description: as §1

[3] = biological target: T3, Urokinase (Homo sapiens, UniProt P00749); assay: Protease inhibition, fluorogenic MCA substrate: urokinase; format: biochemical
T3 construct: urokinase (0.75 U/mg from human kidney cells, Sigma Chemical Co.); purchased Sigma Chemical Co; host or cells: human kidney cells
Description: as §1

[4] = biological target: T4, Plasma kallikrein (Homo sapiens, UniProt P03952); assay: Protease inhibition, fluorogenic MCA substrate: plasma kallikrein; format: biochemical
T4 construct: plasma kallikrein (9.4 U/mg from human plasma); from tissue; host or cells: human plasma
Description: as §1

[5] = biological target: T5, Tissue kallikrein (Sus scrofa, UniProt P00752); assay: Protease inhibition, fluorogenic MCA substrate: tissue kallikrein; format: biochemical, porcine
T5 construct: tissue kallikrein (50 U/mg from porcine pancreas); from tissue; host or cells: porcine pancreas
Description: as §1

[6] = biological target: T6, Papain (Carica papaya, UniProt P00784); assay: Protease inhibition, fluorogenic MCA substrate: papain; format: biochemical
T6 sequence (P00784 134-345): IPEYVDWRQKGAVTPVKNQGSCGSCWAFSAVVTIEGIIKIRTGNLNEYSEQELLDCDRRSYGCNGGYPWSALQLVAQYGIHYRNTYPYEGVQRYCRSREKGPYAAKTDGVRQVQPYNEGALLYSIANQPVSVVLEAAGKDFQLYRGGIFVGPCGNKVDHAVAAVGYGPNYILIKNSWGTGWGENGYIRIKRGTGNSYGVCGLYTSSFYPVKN
Description: as §1

[7] = biological target: T7, Cathepsin B (Rattus norvegicus, UniProt P00787); assay: Protease inhibition, fluorogenic MCA substrate: cathepsin B; format: biochemical
T7 construct: cathepsin B (from rat liver purified as described in Towatari et al); from tissue; host or cells: rat liver
Description: as §1

T4 sequence (P03952 20-638): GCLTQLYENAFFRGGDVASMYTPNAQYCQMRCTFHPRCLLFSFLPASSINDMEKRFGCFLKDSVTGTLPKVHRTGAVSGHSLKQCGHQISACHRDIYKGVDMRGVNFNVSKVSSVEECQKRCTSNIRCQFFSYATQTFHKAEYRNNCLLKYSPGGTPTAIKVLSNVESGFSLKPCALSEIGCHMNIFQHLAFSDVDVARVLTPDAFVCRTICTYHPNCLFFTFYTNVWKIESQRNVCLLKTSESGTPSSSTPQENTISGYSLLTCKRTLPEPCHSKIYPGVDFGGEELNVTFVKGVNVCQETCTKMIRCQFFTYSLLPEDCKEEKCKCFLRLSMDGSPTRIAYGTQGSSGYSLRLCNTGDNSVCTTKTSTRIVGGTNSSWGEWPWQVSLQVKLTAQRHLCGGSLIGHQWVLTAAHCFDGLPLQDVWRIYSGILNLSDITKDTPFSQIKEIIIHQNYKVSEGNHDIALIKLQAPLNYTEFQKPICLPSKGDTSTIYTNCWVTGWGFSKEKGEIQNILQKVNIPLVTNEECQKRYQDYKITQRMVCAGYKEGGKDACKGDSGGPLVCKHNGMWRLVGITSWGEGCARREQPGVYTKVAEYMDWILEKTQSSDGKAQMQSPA
T2 sequence (P00747 581-810 limits assumed): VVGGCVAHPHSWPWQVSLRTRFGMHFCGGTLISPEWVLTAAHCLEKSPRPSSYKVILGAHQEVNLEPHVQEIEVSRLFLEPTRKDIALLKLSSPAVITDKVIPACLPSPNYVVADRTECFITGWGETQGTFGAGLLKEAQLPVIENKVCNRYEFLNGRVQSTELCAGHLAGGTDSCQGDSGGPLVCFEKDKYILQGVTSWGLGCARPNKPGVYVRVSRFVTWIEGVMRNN
T2 sequence (P00747 97-580 partner limits assumed): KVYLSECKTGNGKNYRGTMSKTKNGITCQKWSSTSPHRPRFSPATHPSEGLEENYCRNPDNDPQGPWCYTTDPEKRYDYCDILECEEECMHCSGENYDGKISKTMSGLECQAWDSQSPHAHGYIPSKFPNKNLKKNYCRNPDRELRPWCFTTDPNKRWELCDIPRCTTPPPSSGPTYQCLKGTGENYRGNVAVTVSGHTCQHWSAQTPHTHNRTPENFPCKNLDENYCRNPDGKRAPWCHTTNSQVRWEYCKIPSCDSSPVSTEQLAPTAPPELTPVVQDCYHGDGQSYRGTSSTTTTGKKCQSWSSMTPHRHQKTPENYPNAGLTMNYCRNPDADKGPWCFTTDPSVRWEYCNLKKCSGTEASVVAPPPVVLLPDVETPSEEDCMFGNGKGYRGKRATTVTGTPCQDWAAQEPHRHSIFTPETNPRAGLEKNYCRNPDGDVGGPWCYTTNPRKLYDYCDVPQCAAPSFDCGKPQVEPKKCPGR
T5 sequence (P00752 8-246): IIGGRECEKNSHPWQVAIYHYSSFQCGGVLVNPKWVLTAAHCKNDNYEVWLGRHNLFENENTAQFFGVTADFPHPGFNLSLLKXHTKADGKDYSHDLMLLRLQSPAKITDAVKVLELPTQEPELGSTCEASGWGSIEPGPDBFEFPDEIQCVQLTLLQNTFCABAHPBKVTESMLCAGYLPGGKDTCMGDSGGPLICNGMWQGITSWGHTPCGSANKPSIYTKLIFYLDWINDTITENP
T7 sequence (P00787 80-339): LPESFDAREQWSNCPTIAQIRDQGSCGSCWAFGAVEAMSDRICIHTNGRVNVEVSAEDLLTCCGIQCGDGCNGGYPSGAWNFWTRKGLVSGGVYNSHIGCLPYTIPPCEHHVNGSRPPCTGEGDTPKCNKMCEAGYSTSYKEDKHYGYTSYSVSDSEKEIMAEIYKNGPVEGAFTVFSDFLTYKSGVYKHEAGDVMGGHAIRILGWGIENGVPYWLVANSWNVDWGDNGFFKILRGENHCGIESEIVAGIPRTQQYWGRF
T1 sequence (P00772 27-266): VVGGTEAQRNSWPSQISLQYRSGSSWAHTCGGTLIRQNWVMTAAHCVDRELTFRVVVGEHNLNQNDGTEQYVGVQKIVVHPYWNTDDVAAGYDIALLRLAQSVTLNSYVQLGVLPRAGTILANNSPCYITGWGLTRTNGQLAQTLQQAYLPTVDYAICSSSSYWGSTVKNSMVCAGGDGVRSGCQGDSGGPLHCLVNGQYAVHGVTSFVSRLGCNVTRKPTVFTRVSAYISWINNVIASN

Substance: A4i: 57 amino acid Kunitz-type serine protease inhibitor encoded by the 168 bp insert of λAPCP168i4
- pKi [1]: < 6.00
- inhibition of plasmin (in words) [2]: strongly inhibits
- pKi ([2]; Plasmin, substrate Boc-Val-Leu-Lys-MCA, pH 7.5, 25° C.): 10.12
- inhibition of urokinase (in words) [3]: did not inhibit
- pKi ([3]; Urokinase, substrate Glt-Gly-Arg-MCA, pH 7.5, 25° C.): < 6.00
- inhibition of serum kallikrein (in words) [4]: inhibits
- pKi ([4]; Plasma kallikrein, substrate Z-Phe-Arg-MCA, pH 7.8, 25° C.): 7.13
- inhibition of tissue kallikrein (in words) [5]: inhibits
- pKi ([5]; Tissue kallikrein, substrate Pro-Phe-Arg-MCA, pH 7.8, 25° C.): 7.55
- inhibition of papain (in words) [6]: did not inhibit
- pKi ([6]; Papain, substrate Z-Phe-Arg-MCA, pH 6.0, 25° C.): < 6.00
- inhibition of cathepsin B (in words) [7]: did not inhibit
- pKi ([7]; Cathepsin B, substrate Z-Phe-Arg-MCA, pH 6.0, 25° C.): < 6.00
